Substitutions are numbered along the chain they refer to.

The labels stand for the following.
B1: HFB11-10 (antibody, V domains shown)
VH: EVQLVETGGGLVQPKGSLKLSCAASGFRFNTNAMNWVRQAPGKDLEWVARIRSKSNNYATYYADSVKDRFTISRDDSQSMLYLQMNNVKTEDTAMYYCVRGSDNNYYYAMDYWGQGTSVTVSS
VL: DIVMTQAAPSVPVTPGESVSISCRSSKSLLHSNGNTYLYWFLQRPGQSPQLLIYRMSNLASGVPDRFSGSGSGTAFTLRISRVEAEDVGVYYCMQHLEYPFTFGSGTKLEIK
B2: HFB11-2 (antibody, V domains shown)
VH: EVQLVESGGGLVQPKGSLKLSCAASGFSFNTYAMNWVRQAPGKGLEWVARIRSKSNNYATYYADSVKDRFTISRDDSERMLYLQMNNLKTEDTAMYYCVRGGSYYSNHYFDYWGQGTTLTVSS
VL: B1 VL with R55Q, S105A, I111L
B3: HFB11-10 parental antibody (non-humanized) in ADCC enhanced format (antibody, V domains shown)
VH: B1 VH
VL: B1 VL
B4: HFB11-8 (antibody, V domains shown)
VH: B1 VH with D44G, Y61H, A63V, I72V, V88L, T90A
VL: B1 VL with A75S, A85V
B5: HFB11-5 (antibody, V domains shown)
VH: EVQLVESGGGLVQPRGSLKLSCTASGFSFNAYAMNWVRQAPGKGLEWVARIRTKSNNYATYYADSVKDRFTISRDDSESMLYLQMKNLKTEDTAMYYCVRGGYGNGGYYFDYWGQGTTLTVSS
VL: B1 VL with P12T, V19A, S32R, T36S, M56I
B6: HFB11-3 (antibody, V domains shown)
VH: EVQLVESGGGLVQPQGSLKLSCAASGFSFNTYAMNWVRQAPGKGLQWVARIRSKSNNYATYYADSVKDRFTISRDDSESMLYLQMNNLKTEDAAMYYCVRGKDANYFYAMDYWGQGTSVTVSS
VL: B1 VL with S105A, I111L
B7: HFB11-21 (antibody, V domains shown)
VH: QVQLQQPGAELVKPGASVKLSCKASGYTFISYWMHWVKQRPGRGLEWIGRIDPNSGKTKYNEKFKTKATLTVDKSSSTAYMHLNSLTSDDSAVYYCAREGWGDYWGQGTTLTVSS
VL: DIVLTQSPASLAVSLGQRATISCRASESVDNYGISFMHWYQQKPGQPPRLLIYRASNLASGIPARFSGSGSSTDFTLTINPVETDDIATYYCQQSNKDPRTFGGGTKLEIK
B8: HFB11-19 (antibody, V domains shown)
VH: QVQLQQSGAELVKPGASVKLSCKASGYTFTDYIIHWVKQRSGQGLEWIGWFSPRNNYVKYNERFTDKATLTADKSSNTVYMELSSLTSEDSAVYFCSRHGRNSIGFAYWGQGTLVTVSA
VL: B1 VL with H31N, F101Y, S105G

One assay deals with T1, human CCR8 (UniProt P51685 1-355). The experiment in a line: CCL1 blocking.
Take B1: the midpoint of inhibition, the IC50, lay at 0.428 nM. This lies in the sub-nanomolar range.

A further assay concerns the target T2, mouse CCR8 (UniProt P56484 1-353).
T2 chain: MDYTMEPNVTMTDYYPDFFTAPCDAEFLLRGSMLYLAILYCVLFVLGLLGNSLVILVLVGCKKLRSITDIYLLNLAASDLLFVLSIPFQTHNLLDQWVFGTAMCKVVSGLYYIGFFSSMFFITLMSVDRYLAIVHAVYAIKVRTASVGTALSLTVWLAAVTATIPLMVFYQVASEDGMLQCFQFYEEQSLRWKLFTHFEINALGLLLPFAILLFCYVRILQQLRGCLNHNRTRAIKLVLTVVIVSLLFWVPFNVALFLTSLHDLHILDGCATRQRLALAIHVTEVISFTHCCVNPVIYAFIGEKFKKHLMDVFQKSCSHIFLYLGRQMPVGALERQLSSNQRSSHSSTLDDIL
The experiment in a line: FACS cell binding.
Turning to B2, the EC50 (usually the midpoint of the concentration-response curve) amounted to 0.4 nM.

For the next assay, the target named is T1, human CCR8. The experiment in a line: FACS cell binding.
B3 returned an EC50 of 0.37 nM.

A further assay deals with T1, human CCR8. In words: CCL1 blocking. This is another data set of the same source.
Consider B1, for which the midpoint of inhibition, the IC50, lay at 0.428 nM. This lies in the sub-nanomolar range. On to B4, for which 0.452 nM corresponded to half-maximal inhibition (IC50). This IC50 and that of the molecule before are within 1.5-fold of each other.

For B5, half-maximal inhibition (IC50) required 0.413 nM. Turning to B2, the IC50 (in general, the concentration at which inhibition is half-maximal) was 1.33 nM. Still for that read-out and setting: under B6 stands 1.3 nM.

The target of another assay is T1, human CCR8. In words: FACS cell binding. This is another data set of the same source.
B7 registered a 50% effective concentration (EC50) of 9.05 nM. With B8, the EC50 was determined as 0.86 nM. This EC50 is about 11-fold lower than that of the molecule before. In turn, B1 had an EC50 of 0.57 nM. Same read-out and setting: then B4, with 0.53 nM; and B5, with 0.49 nM; and B2, with 0.98 nM. Same read-out and setting: then B6, with 1.63 nM.

The record behind these values is patent publication US20250019451A1 (published 2025).
